Measured values: patent US20080038748

B1: human blood-derived plasmin (PLN) (Sigma) (protein)
chain: KVYLSECKTGNGKNYRGTMSKTKNGITCQKWSSTSPHRPRFSPATHPSEGLEENYCRNPDNDPQGPWCYTTDPEKRYDYCDILECEEECMHCSGENYDGKISKTMSGLECQAWDSQSPHAHGYIPSKFPNKNLKKNYCRNPDRELRPWCFTTDPNKRWELCDIPRCTTPPPSSGPTYQCLKGTGENYRGNVAVTVSGHTCQHWSAQTPHTHNRTPENFPCKNLDENYCRNPDGKRAPWCHTTNSQVRWEYCKIPSCDSSPVSTEQLAPTAPPELTPVVQDCYHGDGQSYRGTSSTTTTGKKCQSWSSMTPHRHQKTPENYPNAGLTMNYCRNPDADKGPWCFTTDPSVRWEYCNLKKCSGTEASVVAPPPVVLLPDVETPSEEDCMFGNGKGYRGKRATTVTGTPCQDWAAQEPHRHSIFTPETNPRAGLEKNYCRNPDGDVGGPWCYTTNPRKLYDYCDVPQCAAPSFDCGKPQVEPKKCPGRVVGGCVAHPHSWPWQVSLRTRFGMHFCGGTLISPEWVLTAAHCLEKSPRPSSYKVILGAHQEVNLEPHVQEIEVSRLFLEPTRKDIALLKLSSPAVITDKVIPACLPSPNYVVADRTECFITGWGETQGTFGAGLLKEAQLPVIENKVCNRYEFLNGRVQSTELCAGHLAGGTDSCQGDSGGPLVCFEKDKYILQGVTSWGLGCARPNKPGVYVRVSRFVTWIEGVMRNN
B2: human matrix metalloprotease 9 (MMP9) (Alexis), APMA-activated (protein)
chain: MRTPRCGVPDLGRFQTFEGDLKWHHHNITYWIQNYSEDLPRAVIDDAFARAFALWSAVTPLTFTRVYSRDADIVIQFGVAEHGDGYPFDGKDGLLAHAFPPGPGIQGDAHFDDDELWSLGKGVVVPTRFGNADGAACHFPFIFEGRSYSACTTDGRSDGLPWCSTTANYDTDDRFGFCPSERLYTQDGNADGKPCQFPFIFQGQSYSACTTDGRSDGYRWCATTANYDRDKLFGFCPTRADSTVMGGNSAGELCVFPFTFLGKEYSTCTSEGRGDGRLWCATTSNFDSDKKWGFCPDQGYSLFLVAAHEFGHALGLDHSSVPEALMYPMYRFTEGPPLHKDDVNGIRHLYGPRPEPEPRPPTTTTPQPTAPPTVCPTGPPTVHPSERPTAGPTGPPSAGPTGPPTAGPSTATTVPLSPVDDACNVNIFDAIAEIGNQLYLFKDGKYWRFSEGRGSRPQGPFLIADKWPALPRKLDSVFEERLSKKLFFFSGRQVWVYTGASVLGPRRLDKLGLGADVAQVTGALRSGRGKMLLFSGRRLWRFDVKAQMVDPRSASEVDRMFPGVPLDTHDVFQYREKAYFCQDRFYWRVSSRSELNQVDQVGYVTYDILQCPED
B3: human matrix metalloprotease 2 (MMP2) (Alexis), APMA-activated (protein)
chain: YNFFPRKPKWDKNQITYRIIGYTPDLDPETVDDAFARAFQVWSDVTPLRFSRIHDGEADIMINFGRWEHGDGYPFDGKDGLLAHAFAPGTGVGGDSHFDDDELWTLGEGQVVRVKYGNADGEYCKFPFLFNGKEYNSCTDTGRSDGFLWCSTTYNFEKDGKYGFCPHEALFTMGGNAEGQPCKFPFRFQGTSYDSCTTEGRTDGYRWCGTTEDYDRDKKYGFCPETAMSTVGGNSEGAPCVFPFTFLGNKYESCTSAGRSDGKMWCATTANYDDDRKWGFCPDQGYSLFLVAAHEFGHAMGLEHSQDPGALMAPIYTYTKNFRLSQDDIKGIQELYGASPDIDLGTGPTPTLGPVTPEICKQDIVFDGIAQIRGEIFFFKDRFIWRTVTPRDKPMGPLLVATFWPELPEKIDAVYEAPQEEKAVFFAGNEYWIYSASTLERGYPKPLTSLGLPPDVQRVDAAFNWSKNKKTYIFAGDKFWRYNEVKKKMDPGFPKLIADAWNAIPDNLDAVVDLQGGGHSYFFKGAYYLKLENQSLKSVKFGSIKSDWLGC

Biological target: T1, human recombinant LAP β1 (R&D), not treated with protease
T1 chain: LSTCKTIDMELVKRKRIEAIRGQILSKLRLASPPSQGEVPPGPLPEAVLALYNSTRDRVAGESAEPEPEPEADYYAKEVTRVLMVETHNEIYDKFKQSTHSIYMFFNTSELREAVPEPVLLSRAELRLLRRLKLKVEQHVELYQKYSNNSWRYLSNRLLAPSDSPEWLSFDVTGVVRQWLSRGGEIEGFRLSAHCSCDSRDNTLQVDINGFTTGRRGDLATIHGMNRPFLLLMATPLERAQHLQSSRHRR

| Protein | limited degradation on longer incubation; cleavage sites by N-terminal sequencing | limited degradation; cleavage site by N-terminal sequencing of the fragments | degradation of LAP β1 (SDS-PAGE, silver staining) |
| --- | --- | --- | --- |
| B1 | plasmin successively cleaved between 85 Arg and 86 Asp, and between 106 Lys and 107 Glu | plasmin specifically cleaves between 56 Lys and 57 Leu of latent TGF-β | – |
| B2 | – | – | degradation of LAP could not be confirmed |
| B3 | – | – | degradation of LAP could not be confirmed |
